These results are taken from patent US20050287664A1 (published 2005).

The experiment deals with T1, full length rat SD (Shen-Dan) protein expressed from pSDf in HEK293T cells (rat, UniProt Q2VWP9 24-1193).
T1 construct: Full-length rat SD amplified from E10.5 rat cDNA and ligated into pEF1/Myc-His (pSDf); also called SD-expressing cells
T1 sequence: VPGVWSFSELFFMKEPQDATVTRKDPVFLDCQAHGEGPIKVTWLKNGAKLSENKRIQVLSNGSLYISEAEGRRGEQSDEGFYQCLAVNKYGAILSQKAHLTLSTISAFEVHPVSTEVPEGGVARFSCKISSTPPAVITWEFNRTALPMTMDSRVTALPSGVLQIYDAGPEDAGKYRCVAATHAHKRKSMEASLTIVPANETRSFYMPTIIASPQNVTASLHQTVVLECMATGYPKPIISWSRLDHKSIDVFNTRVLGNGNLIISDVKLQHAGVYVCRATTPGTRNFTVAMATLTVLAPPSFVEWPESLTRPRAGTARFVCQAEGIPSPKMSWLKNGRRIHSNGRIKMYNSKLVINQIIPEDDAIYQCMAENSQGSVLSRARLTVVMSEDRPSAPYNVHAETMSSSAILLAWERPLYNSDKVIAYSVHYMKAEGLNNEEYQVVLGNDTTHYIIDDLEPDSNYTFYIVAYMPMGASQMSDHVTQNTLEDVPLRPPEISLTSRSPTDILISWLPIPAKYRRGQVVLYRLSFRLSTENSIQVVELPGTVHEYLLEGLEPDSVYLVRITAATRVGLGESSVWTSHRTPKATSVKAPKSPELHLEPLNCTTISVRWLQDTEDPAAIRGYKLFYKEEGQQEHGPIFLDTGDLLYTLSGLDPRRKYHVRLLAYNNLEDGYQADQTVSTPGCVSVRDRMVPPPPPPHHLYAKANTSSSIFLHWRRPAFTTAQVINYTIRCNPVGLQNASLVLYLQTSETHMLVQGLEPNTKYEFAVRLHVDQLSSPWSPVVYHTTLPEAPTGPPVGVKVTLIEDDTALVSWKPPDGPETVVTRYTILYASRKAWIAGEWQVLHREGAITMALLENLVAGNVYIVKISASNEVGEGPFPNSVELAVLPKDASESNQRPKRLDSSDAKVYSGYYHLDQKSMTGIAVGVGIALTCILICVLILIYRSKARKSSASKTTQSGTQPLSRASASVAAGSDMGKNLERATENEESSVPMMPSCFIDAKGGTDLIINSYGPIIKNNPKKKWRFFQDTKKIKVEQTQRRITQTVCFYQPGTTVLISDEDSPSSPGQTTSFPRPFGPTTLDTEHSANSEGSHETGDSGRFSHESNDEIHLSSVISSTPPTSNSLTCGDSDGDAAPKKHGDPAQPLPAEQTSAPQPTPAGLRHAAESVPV
The experiment in a line: in situ binding assay, conditioned medium on pSDf-transfected HEK293T cells, immunofluorescence (anti-myc 9E10). From the text:
HEDJ/ERdj3 binds to the SD extracellular domain. a, Schematic representation of eight HEDJ/ERdj3 clones identified by yeast two-hybrid screening and their interaction with the SD extracellular domain, shown as activity in an X-gal assay. b, Various sd deletion mutants were examined for their ability to interact with C-terminal HEDJ/ERdj3. c, HEK293T cells were transiently transfected with pHEDJ or a control vector. Three days after transfection, conditioned medium (CM) and total cell lysate (TCL) were subjected to Western blotting to detect HEDJ/ERdj3 using anti-myc antibody. d, Quantification of HEDJ/ERdj3 binding to SD-expressing cells. HEK293T cells were transiently transfected with pSDf or control vector. SD expression was detected by W4 antiserum. Binding of HEDJ/ERdj3 on the cells was detected by anti-myc mAb. Cell nuclei were visualized by DAPI. […] Data were normalized relative to fluorescence intensity of the cells transfected with pSDf in the presence of control CM. Results are shown as means±s.e.m., from a total of 50 cells. (*, p<0.001; by student's t-test).
HEK293T cells were transfected with pSDf using FuGENE 6 (Roche). […] The fluorescence signal was quantified using ImageJ software (NIH, Bethesda, Md., USA).

B1: C-terminal His-myc-tagged HEDJ/ERdj3 protein secreted from pHEDJ-transfected HEK293T cells (ligand, mouse, UniProt Q99KV1 23-358, looked up)
chain: GRDFYKILGVPRSASIKDIKKAYRKLALQLHPDRNPDDPQAQEKFQDLGAAYEVLSDSEKRKQYDTYGEEGLKDGHQSSHGDIFSHFFGDFGFMFGGTPRQQDRNIPRGSDIIVDLEVTLEEVYAGNFVEVVRNKPVARQAPGKRKCNCRQEMRTTQLGPGRFQMTQEVVCDECPNVKLVNEERTLEVEIEPGVRDGMEYPFIGEGEPHVDGEPGDLRFRIKVVKHRIFERRGDDLYTNVTVSLVEALVGFEMDITHLDGHKVHISRDKITRPGAKLWKKGEGLPNFDNNNIKGSLIITFDVDFPKEQLTEEAKEGIKQLLKQGPVQKVYNGLQGY
notes: mature; also called secreted HEDJ/ERdj3; not shown: C-terminal His-myc tag from pEF1/Myc-His
For the molecule B1, the binding result is “binds”.
